From the supplement of paper PMC7877785 come the findings set out here.

± gives the uncertainty stated by the source.

This data set in a line: self-splicing fitness, log relative to wild type (ln ratio); higher = more splicing; Tetrahymena group I intron in knt gene, E. coli kanamycin selection, DiMSum; sequences stand for … in CUCUCU…GGAGGGAAAAGUUAUCAGGCAUGCACCUGGUAGCUAGUCUUUAAACCAAUAGAUUGCAUCGGUUUAAAAGGCAAGACCGUCAAAUUGCGGGAAAGGGGUCAACAGCCGUUCAGUACCAAGUCUCAGGGGAAACUUUGAGAUGGCCUUGCAAAGGGUAUGGUAAUAAGCUGACGGACAUGGUCCUAACCACGCAGCCAAGUCCUAAGUCAACAGAUCUUCUGUUGAUAUGGAUGCAGUUCACAGACUAAAUGUCGGUCGGGGAAGAUGUAUUCUUCUCAUAAGAUAUAGUCGGACCUCUCCUUAAUGGGAGCUAGCGGAUGAAGUGAUGCAACACUGGAGCCGCUGGGAACUAAUUUGUAUGCGAAAGUAUAUUGAUUAGUUUUGGAGUACUCGUGGUCG
Put shortly: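 Six replicate transformations of E. coli BL21(DE3) with a pET-22b(+) library were grown overnight at 37°C or 30°C. The library randomised all eight P1ex-region intron nucleotides, the intron lying in the knt kanamycin-resistance gene, and plates were LB agar with or without 25 μg/mL kanamycin plus 100 μg/mL carbenicillin, 50 μM IPTG and 0.2% rhamnose. Pooled colonies were amplicon-sequenced on an Illumina HiSeq 2500, and fitness is the DiMSum error-weighted combination of wild-type-normalised replicate fold changes, kanamycin versus none.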

On to GUGCAGCAAUAUUACGGUAC, for which the “self-splicing fitness (ln)” value runs as follows: (30 °C) -2.67 ± 0.15; (37 °C) -2.07 ± 0.17.
For GUAAAGCAAUAUUACGGACG the same measures were -1.06 ± 0.12 and 0.298 ± 0.15.
Take GUUGAGCAAUAUUACGUCCA: the “self-splicing fitness (ln)” value (30 °C) was -2.21 ± 0.34.
On to CGUGAGCAAUAUUACGUUGU, for which the “self-splicing fitness (ln)” value is -4.24 ± 0.26 (30 °C) and -1.58 ± 0.17 (37 °C).
Take CCGUAGCAAUAUUACGGGAG: the “self-splicing fitness (ln)” value runs as follows: (30 °C) -3.35 ± 0.19; (37 °C) -2.97 ± 0.18.
The like results for GUAAAGCAAUAUUACGGAAU were, in that order, -0.906 ± 0.099 and -0.779 ± 0.15.
For CUCGAGCAAUAUUACGUGAU the same measures were -2.16 ± 0.14 and -0.542 ± 0.12.
The like results for CUUGAGCAAUAUUACGCUAU were, in that order, -3.44 ± 0.34 and -2.58 ± 0.49.
With UAUAAGCAAUAUUACGUGCU, the “self-splicing fitness (ln)” value reads like this: (30 °C) -2.56 ± 0.16; (37 °C) -1.32 ± 0.15.
As to GGUGAGCAAUAUUACGAUAU, the “self-splicing fitness (ln)” value reads like this: (30 °C) -2.31 ± 0.2; (37 °C) -1.83 ± 0.23.
For CCAUAGCAAUAUUACGGUAG the same measures were -2.01 ± 0.1 and -0.787 ± 0.11.
The like results for CAGCAGCAAUAUUACGAGGC were, in that order, -3.04 ± 0.17 and -2.92 ± 0.2.
On to GGUGAGCAAUAUUACGAAAC, for which the “self-splicing fitness (ln)” value (30 °C) was -2.41 ± 0.24 and the “self-splicing fitness (ln)” value (37 °C) is -1.02 ± 0.27.
For UGGCAGCAAUAUUACGUUGC the same measures were -3.77 ± 0.19 and -2.37 ± 0.13.
The like results for ACUCAGCAAUAUUACGGGUA were, in that order, -1.57 ± 0.099 and -0.922 ± 0.083.
As to CAUGAGCAAUAUUACGUCUC, for the setting “30 °C”, the “self-splicing fitness (ln)” value is -2.83 ± 0.22.
Regarding UGAGAGCAAUAUUACGGGGG, the “self-splicing fitness (ln)” value is, setting by setting: (30 °C) -3.4 ± 0.31; (37 °C) -1.99 ± 0.22.
In the case of UCCCAGCAAUAUUACGCCAU, the “self-splicing fitness (ln)” value was -3.09 ± 0.18 (30 °C) and -2.83 ± 0.38 (37 °C).
For the sequence GCUCAGCAAUAUUACGAAAG, the “self-splicing fitness (ln)” value by setting is: (30 °C) -1.71 ± 0.11; (37 °C) -1.93 ± 0.13.
The like results for AGAAAGCAAUAUUACGAUCC were, in that order, -0.604 ± 0.07 and 0.0529 ± 0.11.
The like results for ACGAAGCAAUAUUACGAAUC were, in that order, -3.29 ± 0.2 and -2.9 ± 0.25.
The like results for AGCAAGCAAUAUUACGUUCU were, in that order, -0.601 ± 0.084 and -0.279 ± 0.087.
Consider AACUAGCAAUAUUACGUUUU, for which the “self-splicing fitness (ln)” value by setting is: (30 °C) -3.52 ± 0.097; (37 °C) -1.32 ± 0.075.
The like results for GGCGAGCAAUAUUACGAGCA were, in that order, -1.44 ± 0.25 and -0.374 ± 0.28.
For ACAAAGCAAUAUUACGUAUC the same measures were -2.27 ± 0.072 and -1.69 ± 0.099.
The like results for UGGCAGCAAUAUUACGGCCU were, in that order, -1.91 ± 0.18 and -1.57 ± 0.18.
On to GUGGAGCAAUAUUACGAGGC, for which, for the setting “37 °C”, the “self-splicing fitness (ln)” value was -1.03 ± 0.5.
As for UUUCAGCAAUAUUACGUUAA, the “self-splicing fitness (ln)” value runs as follows: (30 °C) -1.45 ± 0.077; (37 °C) -1.09 ± 0.076.
Turning to AAAAAGCAAUAUUACGGGUG, the “self-splicing fitness (ln)” value was -1.69 ± 0.062 (30 °C) and -0.982 ± 0.077 (37 °C).
Take UGGUAGCAAUAUUACGUCAC: the “self-splicing fitness (ln)” value (37 °C) is -1.37 ± 0.45.
On to CGUUAGCAAUAUUACGUAGU, for which the “self-splicing fitness (ln)” value is, setting by setting: (30 °C) -4.27 ± 0.25; (37 °C) -2.85 ± 0.23.
Regarding GUGCAGCAAUAUUACGCUGU, the “self-splicing fitness (ln)” value runs as follows: (30 °C) -3.35 ± 0.24; (37 °C) -2.63 ± 0.26.
For ACAAAGCAAUAUUACGUGGA the same measures were -3.55 ± 0.15 and -2.44 ± 0.11.
The like results for AGGAAGCAAUAUUACGCUGA were, in that order, -2.96 ± 0.23 and -1.97 ± 0.22.
